From patent US20220185894A1 (F STAR THERAPEUTICS, published 2022) come the findings set out here.

For assay [1], the target named is T1, mouse LAG-3 Fc (R&D Systems, 3328-L3-050) (mouse, UniProt Q61790 24-442).
T1 construct: Bought protein; also called mLAG-3 Fc; murine LAG-3Fc; not shown: Fc tag of the bought fusion protein
T1 sequence: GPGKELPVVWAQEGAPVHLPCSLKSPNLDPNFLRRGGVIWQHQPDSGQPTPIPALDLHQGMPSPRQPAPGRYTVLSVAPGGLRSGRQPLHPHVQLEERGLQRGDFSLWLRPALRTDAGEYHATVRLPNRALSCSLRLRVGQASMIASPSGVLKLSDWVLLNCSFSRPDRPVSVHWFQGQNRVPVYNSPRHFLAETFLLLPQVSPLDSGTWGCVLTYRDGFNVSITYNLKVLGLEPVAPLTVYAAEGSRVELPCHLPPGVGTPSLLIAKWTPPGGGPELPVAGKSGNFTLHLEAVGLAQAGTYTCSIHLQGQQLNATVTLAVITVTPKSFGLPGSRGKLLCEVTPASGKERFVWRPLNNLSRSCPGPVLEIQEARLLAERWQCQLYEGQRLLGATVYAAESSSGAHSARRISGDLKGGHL
Description: flow cytometry; inhibition of mouse LAG-3 Fc binding to MHC class II on A375 cells. On the procedure:
(§1) The plates were centrifuged at 1500 rpm for 3 min at 4° C. to pellet the cells. […] LAG-3/Fcab mix was added to the A375 cells and incubated for 1 h at 4° C. Cells were washed. Secondary antibody (Alexa Fluor 488 conjugated goat anti-human Fc F(ab′)₂, Jackson Immunoresearch, 109-546-098 or Goat anti-mouse IgG (H+L) 488 conjugate, Life Technologies, A-1101) was diluted 1:1000 in PBS and 100 μl was added to the cells for 30 min at 4° C. (plates were kept in the dark). Cells were washed once in PBS and resuspended in 100 μl PBS+1 μg/ml DAPI (Biotium, 40043). The plates were read on a BD FACSCanto II cytometer (BD Biosciences) and the data analysed using FlowJo software.

In assay [2] the target is T1, mouse LAG-3 Fc (R&D Systems, …). The experiment in a line: SPR, Biacore 3000; mLAG-3 Fc immobilised, Fcab injected. The procedure: A Biacore 3000 (GE Healthcare) was used to measure the affinity of the surrogate Fcabs specific for mouse LAG-3 to mouse LAG-3. […] Fcabs were diluted in HBS-P buffer (GE Healthcare, BR-1003-68) and injected at various concentrations (fourfold dilutions from 100 nM) for 3 min at 20 μl/min and then allowed to dissociate in buffer for 12 min. The chip was regenerated by injection of 10 mM glycine pH 2.5 for 30 s at 30 μl/min. Data was double reference subtracted and analyzed using BIAevaluation 3.2 software to calculate kinetic constants.

Assay [3] deals with T2, mouse LAG-3 expressed on cells (mouse, UniProt Q61790 24-521).
T2 construct: also called mLAG-3; murine LAG-3 HEK
T2 sequence: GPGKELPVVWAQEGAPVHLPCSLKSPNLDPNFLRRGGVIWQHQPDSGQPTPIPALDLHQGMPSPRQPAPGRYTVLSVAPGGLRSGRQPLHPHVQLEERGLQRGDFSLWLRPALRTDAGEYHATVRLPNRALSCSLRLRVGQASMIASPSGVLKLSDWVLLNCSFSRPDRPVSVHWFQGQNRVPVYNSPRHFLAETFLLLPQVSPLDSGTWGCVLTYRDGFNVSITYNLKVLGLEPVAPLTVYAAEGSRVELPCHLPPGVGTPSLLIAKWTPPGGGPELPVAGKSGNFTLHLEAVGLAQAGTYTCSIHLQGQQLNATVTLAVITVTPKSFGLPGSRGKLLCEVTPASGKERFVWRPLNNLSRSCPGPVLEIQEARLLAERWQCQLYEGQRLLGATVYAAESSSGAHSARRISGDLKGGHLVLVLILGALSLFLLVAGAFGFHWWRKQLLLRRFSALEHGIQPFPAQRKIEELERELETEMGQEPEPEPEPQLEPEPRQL
Description: flow cytometry on HEK cells expressing mouse LAG-3. The procedure: HEK cells expressing mLAG-3 grown in DMEM (Life Technologies, 61965-026) containing 10% FBS (Life Technologies, 10270-1-6), 100 μg/ml Hygromycin B (Melford Laboratories Ltd, Z2475), 15 μg/ml Blasticidin (Melford Laboratories Ltd, B1105) and 1 μg/ml Doxycyclin (Sigma, D9891) were detached from tissue culture flasks using cell dissociation buffer (Life Technologies, 13151-014). Cells were collected by centrifuged at 1500 rpm for 3 min at 4° C. to pellet the cells and then resuspended in 1×DPBS then seeded in V-bottom 96-well plates (Costar, 3897) at 1.2×10⁵ cells/well in 30 μl. A 1:1 volume of a dilution series of the mAb² (or control mAb) was added and incubated with the cells for 1 h at 4° C. The plates were washed and secondary antibody (Anti-human Fc-488, Jackson ImmunoResearch, 109-546-098) was diluted 1:1000 in PBS and 60 μl was added to the cells for 30 min at 4° C. (plates were kept in the dark). The plates were then washed and the cells resuspended in 60 μl PBS containing 1 μg/ml DAPI (Biotium, 40043). The plates were read using Canto II flow cytometer (BD Bioscience). Dead cells were excluded and the fluorescence in the FITC channel (488 nm/530/30) was measured. The data was fitted using log (agonist) vs response in GraphPad Prism Software.

Assay [4] addresses T2, mouse LAG-3 expressed on cells. Description: flow cytometry on HEK cells expressing mouse LAG-3. On the procedure: The plates were centrifuged at 1500 rpm for 3 min at 4° C. to pellet the cells. […] (plates were kept in the dark). […] The plates were read using Canto II flow cytometer (BD Bioscience). Dead cells were excluded and the fluorescence in the FITC channel (488 nm/530/30) was measured. The data was fit using log (agonist) vs response in GraphPad Prism Software.
This is another data set of the same source.

The target of assay [5] is T3, recombinant Fc-tagged human LAG-3 (R&D Systems, 2319-L3-050) (human, UniProt P18627 23-450).
T3 construct: Bought protein; also called LAG-3 Fc; human LAG-3-Fc; not shown: Fc tag of the bought fusion protein
T3 sequence: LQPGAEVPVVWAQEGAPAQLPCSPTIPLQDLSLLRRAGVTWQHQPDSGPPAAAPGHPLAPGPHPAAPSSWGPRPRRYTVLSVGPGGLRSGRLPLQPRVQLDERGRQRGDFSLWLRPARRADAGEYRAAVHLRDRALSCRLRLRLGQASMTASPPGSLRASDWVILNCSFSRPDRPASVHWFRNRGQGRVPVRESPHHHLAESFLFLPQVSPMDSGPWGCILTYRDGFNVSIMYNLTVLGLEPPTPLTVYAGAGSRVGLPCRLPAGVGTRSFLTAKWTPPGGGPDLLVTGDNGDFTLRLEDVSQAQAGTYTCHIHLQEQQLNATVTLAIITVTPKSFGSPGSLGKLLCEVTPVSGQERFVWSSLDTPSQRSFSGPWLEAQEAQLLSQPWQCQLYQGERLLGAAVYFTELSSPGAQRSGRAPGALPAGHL
The experiment in a line: flow cytometry; inhibition of human LAG-3 Fc binding to MHC class II on A375 cells. On the procedure:
as §1

Assay [6] deals with T2, mouse LAG-3 expressed on cells. Description: flow cytometry on HEK cells expressing murine LAG-3. On the procedure:
(§2) The affinity of the mAb² (all containing the LALA mutations) binding to cell expressed murine LAG-3 or murine PD-L1 was determined using flow cytometry. HEK cells expressing murine LAG-3 or murine PD-L1 grown in DMEM (Life Technologies, 61965-026) containing 10% FBS (Life Technologies, 10270-1-6), 100 μg/ml Hygromycin B (Melford Laboratories Ltd, Z2475), 15 μg/ml Blasticidin (Melford Laboratories Ltd, B1105) and 1 μg/ml Doxycyclin (Sigma, D9891) were detached from tissue culture flasks using cell dissociation buffer (Life Technologies, 13151-014) and seeded in V-bottom 96-well plates (Costar, 3897) at 2×10⁵ cells/well. The plates were centrifuged at 1500 rpm for 3 min at 4° C. to pellet the cells. A dilution series of the mAb² (or control mAb) were incubated with the cells in a 60 μl volume for 1 h at 4° C. The plates were washed and secondary antibody (Anti-human Fc-488, Jackson ImmunoResearch, 109-546-098 for mAb² or Anti-Rat IgG (H+L), Alexa Fluor 488, ThermoFisher, A-11006 for anti-LAG-3 control, C9B7W) was diluted 1:1000 in PBS and 50 μl was added to the cells for 30 min at 4° C. (plates were kept in the dark). The plates were washed then cells were resuspended in 50 μl FACS Cell Fix (BD Bioscience, 340181) for 15 minutes, then washed and resuspended in 100 μl PBS containing 1 μg/ml DAPI (Biotium, 40043). The plates were read using Canto II flow cytometer (BD Bioscience). Dead cells were excluded and the fluorescence in the FITC channel (488 nm/530/30) was measured. The data was fit using log (agonist) vs response in GraphPad Prism Software. The plates were read on a BD FACSCanto II cytometer (BD Biosciences) and the data analysed using FlowJo.

In assay [7] the target is T4, murine PD-L1 expressed on cells (mouse, UniProt Q9EP73 19-290).
T4 construct: also called murine PD-L1 HEK
T4 sequence (Q9EP73 19-290 limits assumed): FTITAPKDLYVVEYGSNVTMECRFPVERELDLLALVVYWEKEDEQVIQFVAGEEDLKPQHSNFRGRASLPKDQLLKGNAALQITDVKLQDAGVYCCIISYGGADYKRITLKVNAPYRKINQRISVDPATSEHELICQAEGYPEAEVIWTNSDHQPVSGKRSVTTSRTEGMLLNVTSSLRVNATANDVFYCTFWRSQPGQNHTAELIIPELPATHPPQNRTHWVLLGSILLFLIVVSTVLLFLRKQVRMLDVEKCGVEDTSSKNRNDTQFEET
The experiment in a line: flow cytometry on HEK cells expressing murine PD-L1. On the procedure:
as §2, with “The plates were washed then cells were resuspended in 50 μl FACS Cell Fix (BD Bioscience, 340181) for 15 minutes, then washed and resuspended in 100 μl PBS containing 1 μg/ml DAPI (Biotium, 40043).” left out, “The data was fit using log (agonist) vs response in GraphPad Prism Software.” left out

B1: anti-mouse LAG-3 Fcab FS18-7-108-29 (designed binder)
chain: TCPPCPAPELLGGPSVFLFPPKPKDTLMISRTPEVTCVVVDVSHEDPEVKFNWYVDGVEVHNAKTKPREEQYNSTYRVVSVLTVLHQDWLNGKEYKCKVSNKALPAPIEKTISKAKGQPREPQVYTLPPSWDEPWGEDVSLTCLVKGFYPSDIVVEWESNGQPENNYKTTPPVLDSDGSFFLYSKLTVPFERWMWPDEFSCSVMHEALHNHYTQKSLSLSPG
notes: Fcab (truncated hinge, CH2, CH3)
Turning to B1, the 50% inhibitory concentration (IC50) in assay [1] amounted to 0.6 nM. In assay [2], this molecule yielded a Kd of 1.5 nM. Further, the half-maximal effective concentration (EC50) in assay [3] is 2.6 nM; in assay [4] it was 4.5 nM.

B2: anti-human LAG-3 Fcab FS18-7-33 (designed binder)
chain: TCPPCPAPELLGGPSVFLFPPKPKDTLMISRTPEVTCVVVDVSHEDPEVKFNWYVDGVEVHNAKTKPREEQYNSTYRVVSVLTVLHQDWLNGKEYKCKVSNKALPAPIEKTISKAKGQPREPQVYTLPPSWDEPWGEDVSLTCLVKGFYPSDIAVEWESNGQPEDNYKTTPPVLDSDGSFFLYSKLTVPYDRWVWPDEFSCSVMHEALHNHYTQKSLSLSPG
For B2, in assay [5], the half-maximal inhibitory concentration (IC50) amounted to 2.6 nM.

B3: anti-mouse LAG-3 Fcab FS18-7-108-35 (designed binder)
chain: TCPPCPAPELLGGPSVFLFPPKPKDTLMISRTPEVTCVVVDVSHEDPEVKFNWYVDGVEVHNAKTKPREEQYNSTYRVVSVLTVLHQDWLNGKEYKCKVSNKALPAPIEKTISKAKGQPREPQVYTLPPSWDEPWGEDVSLTCLVKGFYPSDISVEWESNGQPENNYKTTPPVLDSDGSFFLYSKLTVPFERWMWPDEFSCSVMHEALHNHYTQKSLSLSPG
notes: as for B1
In assay [1], B3 registered a half-inhibitory concentration (IC50) of 0.7 nM. The same molecule registered a dissociation constant Kd in assay [2] of 2.1 nM. This molecule yielded a half-maximal effective concentration (EC50) in assay [4] of 4.5 nM.

B4: anti-human LAG-3 Fcab FS18-7-78 (designed binder)
chain: TCPPCPAPELLGGPSVFLFPPKPKDTLMISRTPEVTCVVVDVSHEDPEVKFNWYVDGVEVHNAKTKPREEQYNSTYRVVSVLTVLHQDWLNGKEYKCKVSNKALPAPIEKTISKAKGQPREPQVYTLPPSWDEPWGEDVSLTCLVKGFYPSDIAVEWESNGYKEENYKTTPPVLDSDGSFFLYSKLTVPYDRWVWPDEFSCSVMHEALHNHYTQKSLSLSPG
Regarding B4, the IC50 in assay [5] was determined as 2.4 nM.

B5: anti-mouse LAG-3/PD-L1 mAb2 FS18-7-108-29/S1 with LALA mutation (bispecific antibody)
heavy: not shown
light: DIQMTQSPSSLSASVGDRVTITCRASQDVSTAVAWYQQKPGKAPKLLIYSASFLYSGVPSRFSGSGSGTDFTLTISSLQPEDFATYYCQQYLFTPPTFGQGTKVEIKRTVAAPSVFIFPPSDEQLKSGTASVVCLLNNFYPREAKVQWKVDNALQSGNSQESVTEQDSKDSTYSLSSTLTLSKADYEKHKVYACEVTHQGLSSPVTKSFNRGEC
notes: also called FS18-29/S1
B5: the EC50 was 2.27 nM in assay [6] and 11.9 nM in assay [7].

B6: anti-mouse LAG-3/PD-L1 mAb2 FS18-7-108-35/S1 with LALA mutation (bispecific antibody)
heavy: not shown
light: DIQMTQSPSSLSASVGDRVTITCRASQDVSTAVAWYQQKPGKAPKLLIYSASFLYSGVPSRFSGSGSGTDFTLTISSLQPEDFATYYCQQYLFTPPTFGQGTKVEIKRTVAAPSVFIFPPSDEQLKSGTASVVCLLNNFYPREAKVQWKVDNALQSGNSQESVTEQDSKDSTYSLSSTLTLSKADYEKHKVYACEVTHQGLSSPVTKSFNRGEC
notes: also called FS18-35/S1
Turning to B6, the EC50 in assay [6] amounted to 3.84 nM; in assay [7], 12.3 nM.
